How the values were obtained:
[1] = target: CD177 (allele 263K431G) on 293 cells (human) (UniProt Q8N6Q3); experiment: bead-rosette formation; hIgG coupled to M-450 Epoxy Dynabeads, mixed with 293 cells at 3.5 beads per cell; beads on cells with two or more beads counted from one hundred random cells
[2] = target: CD177 (allele 263K431G) on 293 cells (human) (UniProt Q8N6Q3)
[3] = target: CD177 (allele 263K431R) on 293 cells (human) (UniProt Q8N6Q3)
CD177 (allele 263K431R) on 293 cells (human), sequence (Q8N6Q3 22-408): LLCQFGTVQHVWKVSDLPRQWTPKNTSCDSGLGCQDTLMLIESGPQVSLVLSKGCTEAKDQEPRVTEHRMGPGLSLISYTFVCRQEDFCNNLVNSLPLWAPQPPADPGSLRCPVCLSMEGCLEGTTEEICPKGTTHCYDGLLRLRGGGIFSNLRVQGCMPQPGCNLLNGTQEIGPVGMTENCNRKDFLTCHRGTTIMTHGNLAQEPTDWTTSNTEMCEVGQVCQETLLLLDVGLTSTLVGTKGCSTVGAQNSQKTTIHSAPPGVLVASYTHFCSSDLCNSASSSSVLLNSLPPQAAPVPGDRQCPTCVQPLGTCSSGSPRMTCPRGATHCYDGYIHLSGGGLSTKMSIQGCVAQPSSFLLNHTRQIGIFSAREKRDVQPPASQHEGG

CD177 (allele 263K431G) on 293 cells (human), sequence (Q8N6Q3 22-408): as above

bound beads per 100 cells (beads per 100 cells) [1]	ADCC (% specific release) of NK-92 cells expressing the CD177-263K431G allele against SKOV-3 cells with trastuzumab 5 μg/ml, E:T 20:1 [2] [%]	ADCC (% specific release) of NK-92 cells expressing the CD177-263K431R allele against SKOV-3 cells with trastuzumab 5 μg/ml, E:T 20:1; failed to mediate ADCC [3] [%]	Substance
123			Human serum IgG (hIgG) (antibody)
	8.93	0.11	Trastuzumab/Herceptin (antibody)
